Bridge positions count the residues as written; N and C are the ends. Square brackets hold non-standard residues; d marks the D form. Ends that are not written are not given here. NMeL = CN[C@@H](CC(C)C)C(=O)O; hCys = N[C@@H](CCS)C(=O)O; Orn = NCCC[C@H](N)C(=O)O
Tests used:
[1] = tested on: Recombinant Human FGFR 1 alpha (IIIc) Fc Chimera Protein; assay: Binding affinity of chemically synthesized cyclic peptide to immobilized FGFR by SPR; settings: 10 nmol/L cyclic peptide, 25° C., binding amount per one molecule of FGFR, chemically synthesized product
Experimental: The binding affinity of the cyclic peptide to FGFR was evaluated using a surface plasmon resonance (SPR) method.
A CM5 sensor chip (Cytiva, 29149603) was set in Biacore-T200 (manufactured by Cytiva) which is a surface plasmon resonance device, and an HBS-EP buffer (Cytiva, BR100826) was added as a running buffer at a flow rate of 10 μL/min to equilibrate the flow channel. Next, 70 μL of a mixed aqueous solution of 0.2 mol/L 1-(3-dimethylaminopropyl)-3-ethylcarbodiimide (EDC) and 0.05 mol/L N-hydroxysuccinimide (NHS) was added to activate the sensor chip. Then, Recombinant Human FGFR 1 alpha (IIIc) Fc Chimera Protein CF (R&D systems, 658-FR-050) prepared at 50 nmol/L in an Acetate 4.5 buffer (Cytiva, BR100350) was added thereto to perform immobilization at about 5000 RU. Thereafter, the blocking treatment was performed with an ethanolamine solution. In addition, in another flow channel of the same sensor chip, blocking treatment was performed immediately after activation without immobilizing FGFR.
A cyclic peptide diluted to 10 nmol/L using HBS-EP was added to each flow channel of the FGFR-immobilized sensor chip produced above at 25° C. for 10 minutes, then HBS-EP was allowed to flow as a running buffer for 30 minutes, and the binding of the cyclic peptide to FGFR was measured. Thereafter, a regeneration treatment of removing the bound cyclic peptide was performed by repeating the flow of a regeneration liquid in which sodium chloride powder was dissolved in Glysine 1.5 (Cytiva, BR100354) to a final concentration of 0.15 mol/L for 1 minute in each flow channel twice. The binding amount of the cyclic peptide was evaluated from the difference between the measured value of Biacore-T200 in the flow channel in which FGFR was immobilized and the measured value of Biacore-T200 in the flow channel in which FGFR was not immobilated, in a case where a 10 nmol/L cyclic peptide was allowed to flow.
The binding amount of the cyclic peptide evaluated above was normalized to the binding amount of the cyclic peptide molecules per one molecule of FGFR using the molecular weights of the cyclic peptide and FGFR, and the binding affinity to FGFR was evaluated according to the following evaluation criteria. The evaluation result preferably satisfies the evaluation criteria A, B, or C.
• A: The binding amount is 0.7 molecules of the cyclic peptide/one molecule of FGFR or more. • B: The binding amount is 0.5 molecules of the cyclic peptide/one molecule of FGFR or more and less than 0.7 molecules of cyclic peptide/one molecule of FGFR. • C: The binding amount is 0.1 molecules of cyclic peptide/one molecule of FGFR or more and less than 0.5 molecules of cyclic peptide/one molecule of FGFR. • D: The binding amount is less than 0.1 molecules of the cyclic peptide/one molecule of FGFR.

[2] = Molecular stability of cyclic peptide after reducing agent (DTT) treatment, LC; assay type: physicochemical; settings: residual rate after 12.6 mmol/L DTT aqueous solution, room temperature, 1 hour
Experimental: The molecular stability of the cyclic peptide was evaluated by analyzing an aqueous solution of the cyclic peptide treated with a reducing agent by liquid chromatography (LC).
The reducing agent treatment was performed under the following conditions based on the concentration of glutathione contained in the cells. 25 μL of a 0.2 mg/mL cyclic peptide aqueous solution was prepared, 58.8 μL of a 12.6 mmol/L DTT aqueous solution was added to the aqueous solution, and the mixture was incubated at room temperature for 1 hour to obtain an aqueous solution of the cyclic peptide treated with a reducing agent. The DTT aqueous solution was used by diluting a 1 mol/L (+-)-dithiothreitol (DTT) solution (FUJIFILM Wako Pure Chemical Corporation, 044-33871) with water. The total area of all the peaks in LC/MS of the cyclic peptide before the reducing agent treatment was set to 100%, and the proportion of the total area of all the peaks in LC/MS of the aqueous solution of the cyclic peptide treated with the reducing agent was determined to calculate the residual rate of the cyclic peptide, and the molecular stability was evaluated according to the following evaluation criteria. The evaluation result preferably satisfies the evaluation criteria A, B, or C.
• A: The residual rate of cyclic peptide is 90% or more. • B: The residual rate of the cyclic peptide is 70% or more and less than 90% • C: The residual rate of the cyclic peptide is 50% or more and less than 70% • D: The residual rate of the cyclic peptide is less than 50%
The LC used for the evaluation of molecular stability was set to the following conditions. • LC device: Prominence series (pump, column oven, autosampler, detector) (manufactured by Shimadzu Corporation) • Detector: photodiode array detector (SPD-M20A), measurement wavelength of 280 nm • Column: TSKgel ODS-100V, inner diameter of 4.6 mm×length of 150 mm, particle diameter of 5 μm (manufactured by Tosoh Corporation) • Eluent A: solution containing 0.1% trifluoroacetic acid as solute, and solvent is 100% water • Eluent B: solution containing 0.1% trifluoroacetic acid as solute, and solvent is 100% acetonitrile • Flow rate: 1.0 mL/min • Injection amount: 25 μL • Gradient: 20% to 50%: Eluent B (0 to 15 minutes), 100%: Eluent B (15 minutes) • Column temperature: 40° C.

With “376 (HXSYERLQFHGHEAPFRVXVKKK; not fully specified; Description of Artificial Sequence: Cyclic peptide) [compound 376]” the “Evaluation result of binding affinity to FGFR” value (“Evaluation result … to FGFR” for short) [1] was “A (The binding amount is 0.7 molecules of the cyclic peptide/one molecule of FGFR or more.)” and the “Evaluation result of reductive stability” value [2] was “A (The residual rate of cyclic peptide is 90% or more.)”.
For “377 (HXSYERLQFHGHEAPFRVXVKKK; not fully specified; Description of Artificial Sequence: Cyclic peptide) [compound 377]”, the “Evaluation result … to FGFR” value [1] was “A (The binding amount is 0.7 molecules of the cyclic peptide/one molecule of FGFR or more.)” and the “Evaluation result of reductive stability” value [2] was “A (The residual rate of cyclic peptide is 90% or more.)”.
With “385 ([Orn]SYERLIFHGHEAPFWV[hCys]KKK; bridge 1-18; not fully specified (residue 1, bridges); printed as (Orn(acetyl))-SYERLIFHGHEAPFWV-(Hcy)-KKK) [compound 385]” the “Evaluation result … to FGFR” value [1] was “C (The binding amount is 0.1 molecules of cyclic peptide/one molecule of FGFR or more and less than 0.5 molecules of cyclic peptide/one molecule of FGFR.)” and the “Evaluation result of reductive stability” value [2] was “A (The residual rate of cyclic peptide is 90% or more.)”.
For “383 (HCSYERLQFHGHEAPFRVCVKKK; disulfide 2-19) [compound 383]”, the “Evaluation result of reductive stability” value [2] was “D (The residual rate of the cyclic peptide is less than 50%)”.
In the case of “379 (HXSYERLQFHGHEAPFRVXVKKK; not fully specified; Description of Artificial Sequence: Cyclic peptide) [compound 379]”, the “Evaluation result … to FGFR” value [1] is reported as “A (The binding amount is 0.7 molecules of the cyclic peptide/one molecule of FGFR or more.)” and the “Evaluation result of reductive stability” value [2] is reported as “A (The residual rate of cyclic peptide is 90% or more.)”.
With “380 (HXSYERLQFHGHEAPFRVXVKKK; not fully specified; Description of Artificial Sequence: Cyclic peptide) [compound 380]” the “Evaluation result … to FGFR” value [1] was “A (The binding amount is 0.7 molecules of the cyclic peptide/one molecule of FGFR or more.)” and the “Evaluation result of reductive stability” value [2] was “A (The residual rate of cyclic peptide is 90% or more.)”.
For “386 ({CH2CO}-HASYERLIFHGHEAPFWVCVKKK; thioether N-19 (inferred)) [compound 386]”, the “Evaluation result … to FGFR” value [1] was “B (The binding amount is 0.5 molecules of the cyclic peptide/one molecule of FGFR or more and less than 0.7 molecules of cyclic peptide/one molecule of FGFR.)” and the “Evaluation result of reductive stability” value [2] was “A (The residual rate of cyclic peptide is 90% or more.)”.
In the case of “387 (H[Orn]SYER[NMeL]IFHGHEAPFWV[hCys]VKKK; bridge 2-19; not fully specified (residue 2, bridges)) [compound 387]”, the “Evaluation result … to FGFR” value [1] is reported as “A (The binding amount is 0.7 molecules of the cyclic peptide/one molecule of FGFR or more.)” and the “Evaluation result of reductive stability” value [2] is reported as “A (The residual rate of cyclic peptide is 90% or more.)”.
In the case of “384 (H[Orn]SYERLIFHGHEAPFWV[hCys]VKKK; bridge 2-19; not fully specified (residue 2, bridges); printed as H-(Orn(acetyl))-SYERLIFHGHEAPFWV-(Hcy)-VKKK) [compound 384]”, the “Evaluation result … to FGFR” value [1] is reported as “A (The binding amount is 0.7 molecules of the cyclic peptide/one molecule of FGFR or more.)” and the “Evaluation result of reductive stability” value [2] is reported as “B (The residual rate of the cyclic peptide is 70% or more and less than 90%)”.
With “375 (HXSYERLQFHGHEAPFRVXVKKK; not fully specified; Description of Artificial Sequence: Cyclic peptide) [compound 375]” the “Evaluation result … to FGFR” value [1] was “A (The binding amount is 0.7 molecules of the cyclic peptide/one molecule of FGFR or more.)” and the “Evaluation result of reductive stability” value [2] was “A (The residual rate of cyclic peptide is 90% or more.)”.
In the case of “381 (HXSYERLQFHGHEAPFRVXVKKK; not fully specified; Description of Artificial Sequence: Cyclic peptide) [compound 381]”, the “Evaluation result … to FGFR” value [1] is reported as “A (The binding amount is 0.7 molecules of the cyclic peptide/one molecule of FGFR or more.)” and the “Evaluation result of reductive stability” value [2] is reported as “A (The residual rate of cyclic peptide is 90% or more.)”.
With “378 (HKSYERLQFHGHEAPFRVXVKKK; not fully specified; Description of Artificial Sequence: Cyclic peptide) [compound 378]” the “Evaluation result … to FGFR” value [1] was “A (The binding amount is 0.7 molecules of the cyclic peptide/one molecule of FGFR or more.)” and the “Evaluation result of reductive stability” value [2] was “A (The residual rate of cyclic peptide is 90% or more.)”.
With “389 (H[Orn]SYERLIFHGHEAPFWV[hCys]KKK; bridge 2-19; not fully specified (residue 2, bridges); printed as H-(Orn(acetyl))-SYERLIFHGHEAPFWV-(Hcy)-KKK) [compound 389]” the “Evaluation result … to FGFR” value [1] was “A (The binding amount is 0.7 molecules of the cyclic peptide/one molecule of FGFR or more.)” and the “Evaluation result of reductive stability” value [2] was “A (The residual rate of cyclic peptide is 90% or more.)”.
In the case of “390 ([Orn]SYERLIFHGHEAPFWV[hCys]VKKK; bridge 1-18; not fully specified (residue 1, bridges); printed as (Orn(acetyl))-SYERLIFHGHEAPFWV-(Hcy)-VKKK) [compound 390]”, the “Evaluation result … to FGFR” value [1] is reported as “C (The binding amount is 0.1 molecules of cyclic peptide/one molecule of FGFR or more and less than 0.5 molecules of cyclic peptide/one molecule of FGFR.)” and the “Evaluation result of reductive stability” value [2] is reported as “A (The residual rate of cyclic peptide is 90% or more.)”.
For “374 (HXSYERLQFHGHEAPFRVKVKKK; not fully specified; Description of Artificial Sequence: Cyclic peptide) [compound 374]”, the “Evaluation result … to FGFR” value [1] was “A (The binding amount is 0.7 molecules of the cyclic peptide/one molecule of FGFR or more.)” and the “Evaluation result of reductive stability” value [2] was “A (The residual rate of cyclic peptide is 90% or more.)”.

Source: US20260008818A1, “CYCLIC PEPTIDE OR SALT THEREOF, AND USES THEREOF” (FUJIFILM Corporation, priority 2023, published 2026)
